Patent US20240402174A1 (Takeda / Millennium, published 2024)

Assays:
Assay in all cases: multiplex microsphere immunoassay
[1] = molecular target: T1, GI.1 VLP (norovirus Hu/GI.1/Norwalk/1968/US, UniProt Q83884 1-530)
T1 construct: also called GI.1 Norwalk; GI.I/Norwalk VLP
T1 sequence: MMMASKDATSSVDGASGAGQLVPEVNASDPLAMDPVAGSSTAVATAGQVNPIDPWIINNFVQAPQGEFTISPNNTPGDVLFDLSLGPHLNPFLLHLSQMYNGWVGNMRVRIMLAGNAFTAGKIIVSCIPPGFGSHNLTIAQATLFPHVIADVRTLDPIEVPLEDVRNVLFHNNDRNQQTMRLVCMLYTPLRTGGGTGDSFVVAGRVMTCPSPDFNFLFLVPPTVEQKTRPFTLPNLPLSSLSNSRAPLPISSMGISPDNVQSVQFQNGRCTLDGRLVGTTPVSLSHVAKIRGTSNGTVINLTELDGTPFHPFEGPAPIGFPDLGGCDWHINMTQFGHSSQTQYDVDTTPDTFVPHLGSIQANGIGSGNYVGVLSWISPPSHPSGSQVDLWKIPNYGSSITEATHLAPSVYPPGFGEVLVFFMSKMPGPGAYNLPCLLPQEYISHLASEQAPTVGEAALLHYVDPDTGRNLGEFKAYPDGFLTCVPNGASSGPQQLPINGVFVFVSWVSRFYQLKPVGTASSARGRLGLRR

[2] = molecular target: T2, GI.3 VLP (norovirus Hu/GI.3/JKPG_883/SWE/2007)
T2 construct: also called GI.3 Sweden
T2 chain: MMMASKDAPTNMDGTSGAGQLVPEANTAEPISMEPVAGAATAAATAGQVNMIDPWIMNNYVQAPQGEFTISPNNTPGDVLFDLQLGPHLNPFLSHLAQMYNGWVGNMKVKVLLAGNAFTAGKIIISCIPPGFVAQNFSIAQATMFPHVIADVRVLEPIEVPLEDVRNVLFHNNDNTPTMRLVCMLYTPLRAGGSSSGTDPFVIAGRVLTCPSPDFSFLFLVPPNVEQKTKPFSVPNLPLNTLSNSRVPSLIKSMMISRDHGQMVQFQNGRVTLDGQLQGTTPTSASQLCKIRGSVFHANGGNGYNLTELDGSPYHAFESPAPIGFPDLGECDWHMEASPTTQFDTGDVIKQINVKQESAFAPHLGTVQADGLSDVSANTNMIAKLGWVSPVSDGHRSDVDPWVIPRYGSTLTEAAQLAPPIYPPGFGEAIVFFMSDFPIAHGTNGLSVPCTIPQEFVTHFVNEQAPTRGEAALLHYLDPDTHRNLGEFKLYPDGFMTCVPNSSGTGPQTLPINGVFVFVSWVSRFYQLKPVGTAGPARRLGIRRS

[3] = molecular target: T3, GI.5 VLP (norovirus …)
T3 construct: also called GI.5 Siklos
T3 chain: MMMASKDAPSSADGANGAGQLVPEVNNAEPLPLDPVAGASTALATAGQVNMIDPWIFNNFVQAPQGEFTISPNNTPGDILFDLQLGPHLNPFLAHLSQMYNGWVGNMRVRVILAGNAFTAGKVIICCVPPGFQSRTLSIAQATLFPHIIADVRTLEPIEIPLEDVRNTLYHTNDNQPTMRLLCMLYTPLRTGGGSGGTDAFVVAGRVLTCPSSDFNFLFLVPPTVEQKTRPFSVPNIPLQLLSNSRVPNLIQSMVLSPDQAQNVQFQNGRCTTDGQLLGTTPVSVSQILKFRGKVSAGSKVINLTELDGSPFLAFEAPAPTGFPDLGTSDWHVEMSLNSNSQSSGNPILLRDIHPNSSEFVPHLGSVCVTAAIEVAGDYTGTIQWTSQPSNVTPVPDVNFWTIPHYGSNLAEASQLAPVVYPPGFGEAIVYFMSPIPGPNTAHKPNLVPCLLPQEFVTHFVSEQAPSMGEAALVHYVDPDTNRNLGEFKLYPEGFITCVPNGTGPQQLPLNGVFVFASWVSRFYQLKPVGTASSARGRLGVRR

[4] = molecular target: T4, GI.4 VLP (norovirus Hu/GI.4/1643/2008/US)
T4 construct: also called GI.4 US
T4 chain: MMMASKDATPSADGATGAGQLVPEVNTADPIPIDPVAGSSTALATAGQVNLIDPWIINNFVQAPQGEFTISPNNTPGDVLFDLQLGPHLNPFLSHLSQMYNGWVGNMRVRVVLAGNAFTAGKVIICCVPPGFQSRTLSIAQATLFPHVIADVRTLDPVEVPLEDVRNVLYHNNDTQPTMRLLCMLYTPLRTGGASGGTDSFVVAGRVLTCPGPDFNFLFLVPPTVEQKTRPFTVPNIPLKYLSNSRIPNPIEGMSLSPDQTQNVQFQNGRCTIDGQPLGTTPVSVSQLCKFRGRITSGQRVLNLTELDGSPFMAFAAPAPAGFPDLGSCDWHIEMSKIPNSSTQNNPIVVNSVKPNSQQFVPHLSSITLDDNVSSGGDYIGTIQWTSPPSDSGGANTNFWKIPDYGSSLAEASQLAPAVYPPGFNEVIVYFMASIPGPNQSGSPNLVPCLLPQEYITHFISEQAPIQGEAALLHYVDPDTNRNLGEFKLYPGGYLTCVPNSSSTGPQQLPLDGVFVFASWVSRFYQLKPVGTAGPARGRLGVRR

[5] = molecular target: T5, GI.6 VLP (norovirus Hu/GI.6/TCH-099/USA/2003)
T5 construct: also called GI.6 USA
T5 chain: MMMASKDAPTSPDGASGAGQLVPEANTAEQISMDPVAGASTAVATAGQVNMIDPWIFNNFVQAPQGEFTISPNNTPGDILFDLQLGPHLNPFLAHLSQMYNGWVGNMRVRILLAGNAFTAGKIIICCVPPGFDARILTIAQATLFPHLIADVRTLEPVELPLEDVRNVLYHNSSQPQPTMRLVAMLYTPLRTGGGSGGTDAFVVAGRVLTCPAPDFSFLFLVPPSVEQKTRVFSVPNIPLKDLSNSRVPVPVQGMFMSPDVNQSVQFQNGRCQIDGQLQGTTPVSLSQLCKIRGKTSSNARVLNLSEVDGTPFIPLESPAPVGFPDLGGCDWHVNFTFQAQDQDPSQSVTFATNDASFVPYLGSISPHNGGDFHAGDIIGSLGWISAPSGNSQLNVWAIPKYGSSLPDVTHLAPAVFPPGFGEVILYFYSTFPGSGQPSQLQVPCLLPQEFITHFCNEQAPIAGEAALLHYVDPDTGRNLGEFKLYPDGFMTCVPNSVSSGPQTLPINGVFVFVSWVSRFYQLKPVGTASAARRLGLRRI

Measured: binding result

B1: human mAb 1431 (antibody, V domains shown)
VH: QVQLVQSGGGLVQPGGSLRLSCAASGFAFSNHGMHWVRQAPGKGLEWLSYISGSTGAIHYANSVKGRFTISRDNARNSLDLQMNSLGDEDTAVYYCARDGPRPDGTGYAGPSNDYWGQGTLVSVSS
VL: EIVLTQSPASLSLSPGERATLSCKASRSISIYLAWYQQKPGQAPRLLIYDASYRAIGIPARFSGSGSGTDFTLTISNLEPEDFAVYYCQHRSSWPALTFGGGTKVEI
notes: also called A1431
no binding: all assays above
